Data: PMC7262672
Like-named read-outs stand apart in the source and are kept apart here.

How the values were obtained:
[1] = target: E. coli scaffold protein IscU (Escherichia coli) (UniProt P0ACD4); experiment: non-reducing SDS-PAGE with densitometry
[2] = target: E. coli scaffold protein IscU (Escherichia coli) (UniProt P0ACD4); experiment: native MS
[3] = target: E. coli cysteine desulfurase IscS (Escherichia coli) (UniProt P0A6B7); experiment: native MS
[4] = target: E. coli scaffold protein IscU (Escherichia coli) (UniProt P0ACD4); experiment: native MS; remark: listed apart in the source

Chain of UniProt P0A6B7 (P0A6B7 whole entry): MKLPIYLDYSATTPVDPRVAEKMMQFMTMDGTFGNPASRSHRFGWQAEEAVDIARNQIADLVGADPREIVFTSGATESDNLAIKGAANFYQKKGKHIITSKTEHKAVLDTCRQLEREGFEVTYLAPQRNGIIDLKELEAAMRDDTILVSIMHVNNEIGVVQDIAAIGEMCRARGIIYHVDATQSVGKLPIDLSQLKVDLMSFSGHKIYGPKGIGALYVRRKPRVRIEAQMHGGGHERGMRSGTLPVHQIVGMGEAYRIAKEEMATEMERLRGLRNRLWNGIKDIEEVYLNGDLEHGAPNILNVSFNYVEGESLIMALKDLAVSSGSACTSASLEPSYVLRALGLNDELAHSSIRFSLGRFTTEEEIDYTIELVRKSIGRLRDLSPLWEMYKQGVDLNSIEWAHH

percent dimer [1]: 65%
percent dimer (of the monomer-to-dimer ratio) [2]: 14%
fraction of IscS2 lacking IscU [3]: 11%
fraction of the IscU2–IscS2 complex [3]: 94%
fraction of the IscU2–IscS2 species [3]: 86%
fraction of the IscU-IscS2 complex [3]: 47%
fraction of the IscU-IscS2 species [3]: 6%
stoichiometry N (IscU per IscS dimer) [3]: 2
percent dimer [4]: 59%
percent dimer (of the monomer-to-dimer ratio) [4]: 22%
stoichiometry N [4]: 2
Substance: E. coli scaffold protein IscU (from UniProt P0ACD4 1-128) (natural protein)
